# Test results taken from patent US20090233993A1, “COMPOSITIONS AND METHODS FOR INHIBITING GSK3 ACTIVITY AND USES THEREOF” (Burnham Institute for Medical Research, priority 2008, published 2009).
# Entries after “also recorded” stand apart in the source; their conditions may differ.
# B1: FG01: 141 amino acid transmembrane protein encoded by mouse retrogene fg01 (SEQ ID NO:2); expressed from transfected vector or transgene (protein)
# chain: MQSQQRNIGYFNHLKADSRNITYSMTFSTKSSNQNFIIFLNEVQAAIIGHERCDLLPVLNELHPDALPDGRIWLFGLNPYFFQHNSLCMRGTPKRIGLQGCAQVGFLVLFVMPLLIPSVTAELPGSSETTTLAHLAGATGP
# modifications: Myc and His6 tags; homo sapien
# notes: expressed from transfected vector or transgene
# How the values were obtained:
# β-secretase (BACE1) = β-secretase (BACE1) in vitro activity and protein level in FG01-overexpressing cells; assay type: cell-based, mouse
# Experimental: The in vitro activity of β-secretase (BACE1) was assayed using a commercial kit (Calbiochem), following the manufacturer's protocol.
# To determine whether FG01 reduces Aβ generation by modulating β-secretase activities, β-secretase (BACE1) activity and the protein level of BACE1 in vitro in FG01-overexpressing cells was examined and both were unchanged. FG01 cell clones identified by RHKO were treated with DMSO (control) or 2 μg/ml doxycycline for 72 hrs. In some experiments, N2a cells were transfected with control vector (Con) or FG01 vector for 48 hrs. Cell lysates were assayed for β-secretase activity. FG01 was transfected into N2a cells and equal protein lysates were subjected to SDS-PAGE and Western blot with antibodies against BACE1 (Yan et al., 2001), nicastrin (Leem et al., 2002) or Myc. APP βCTF accumulation can also be attributed to a decrease in γ-secretase-mediated cleavage.
# tau = tau phosphorylation (Thr205, PHF-1) in N2aSwe cells cotransfected with human tau T40; assay type: cell-based
# Experimental: Since GSK-3 can phosphorylate tau at multiple sites, it was determined whether FG01 can affect tau phosphorylation by GSK-3. The human longest tau splicing variant T40 was cotransfected with FG01 or expression vector (control) into N2aSwe cells, and the tau phosphorylation examined at Thr205 and PHF-1 tauepitope (Ser396 and Ser404), which are GSK-3 phosphorylation targets and major paired helical filament (PHF) tau sites found in NFTs. […] In addition, little change was found in CDK5 protein level and its in vitro activity upon FG01 overexpression.
# The human tau T40 was co-transfected with either FG01 or the expression vector into N2aSwe cells. The phospho-tau at Thr205 and PHF-1 and total tau proteins in the transfected cells were detected by Western blots (left). The levels of phospho-tau at the examined sites were quantified by densitometry and normalized to the total levels (right).
# (§1) GSK-3 is a major kinase that phosphorylates tau in AD (Flaherty et al., 2000). […] N2aSwe cells were cotransfected with the human tau splice variant T40 and with FG01 (or control vectors), and examined tau phosphorylation at the threonine 205 site (Thr205) and the PHF-1 tau epitope sites (serine 396 and serine 404), which are GSK-3 phosphorylation targets, and at the major paired helical filament (PHF) sites found in NFTs. […] Protein levels and activity of CDK5, another kinase mediating tau phosphorylation in AD (Flaherty et al., 2000), was analyzed following FG01 overexpression. […] N2a cells were transfected with FG01 or a control vector (Con). Equal cell lysate proteins were used for assaying in vitro CDK5 activity.
# cAMP levels = test: cAMP assay in mouse N2a cells; assay type: cell-based; conditions: FG01 overexpression
# Text: (§2) After 48-72 hrs, cells were lysed and cell lysates were subjected to immunoprecipitation with mouse IgG, rabbit IgG, myc antibody and adenylyl cyclase (AC) antibody (Santa Cruz Biotechnology, catalog number sc-1701), and then immunoblotted with antibodies against adenylyl cyclase (AC) and myc, respectively.
# Commercial kits were used to assay in vitro activities of GSK-3β (Sigma) and PKA (Upstate). For GSK-3α activity, a commercial GSK-3β activity assay kit was used but the procedure to immunoprecititate GSK-3β was replaced with immunoprecipitation of GSK-3α using an anti-GSK-3α antibody (Cell Signaling). cAMP levels were assayed using a commercial kit (Biovision).
# adenylate cyclases = test: co-immunoprecipitation of FG01 with adenylate cyclases; assay type: binding, mouse; conditions: N2a cells overexpressing FG01
# Experimental: as §2
# Cells transfected with FG01 were lysed in either CHAPSO buffer (1% CHAPSO, 25 mM HEPES, pH7.4, 150 mM NaCl, and 2 mM EDTA supplemented with protease inhibitors) or in NP40 buffer (1% NP40 in phosphate buffered saline, supplemented with protease inhibitors). Lysates were immunoprecipitated using mouse IgG, rabbit IgG, and antibodies against Myc or adenylate cyclases and Trueblot™ IP beads (eBioscience), followed by Western blot with antibodies against Myc or adenylate cyclases.
# GSK-3α/β [1] = test: phospho-GSK-3α/β Western blot in human HeLaSwe and HEK293 cells; assay type: cell-based
# Text: Expression of β-catenin, inactivated phospho-GSK-3β, total GSK-3, APP, β-CTF and FG01 in transfected human HEK293 cells were shown by Western blots.
# (§3) Although the possibility that FG01 may modulate substrate specificity or accessibility to γ-secretase can not be excluded, it is equally possible that FG01 regulates other proteins/pathways functioning in APP processing and Aβ generation. […] Thus, the activities of GSK-3α/β were studied in the presence or absence of FG01 overexpression by examining levels of phospho-GSK-3α (Ser 21) and phospho-GSK-3β (Ser 9) (which represent inactivated forms of GSK-3) and by in vitro kinase assays.
# CDK5 = CDK5 protein level and in vitro activity in N2a cells; assay type: cell-based, mouse; conditions: FG01 overexpression
# Experimental: The in vitro activity of CDK5 was assayed as described (Han et al., 2005). Briefly, CDK5 protein was immunoprecipitated and incubated with histone-H1 in [γ-^32P]ATP-containing buffer. After reaction termination, samples were subjected to SDS-PAGE and autoradiography. Results were quantified using a PhosphoImager (Molecular Dynamics).
# as §1
# GSK-3α/β [2] = test: phospho-GSK-3α/β Western blot in rat PC12 cells; assay type: cell-based; conditions: FG01 overexpression
# Text: as §3
# [3] = human tau T40 cotransfected with FG01
molecule,measurement,setting,value
B1,protein level of BACE1,"β-secretase (BACE1); FG01-overexpressing N2a cells, Western blot",unchanged
same,β-secretase (BACE1) activity,"β-secretase (BACE1); in vitro assay, FG01-overexpressing cells",did not significantly change; also recorded: unchanged
same,total tau levels,tau; [3],without affecting
same,unphosphorylated tau levels,tau; [3],increased
same,tau phosphorylation at GSK-3 target sites,tau; human tau T40 cotransfected with FG01 in N2aSwe cells,significantly decreased
same,"decrease of tau phosphorylation at Thr205 and PHF-1 epitope (Ser396, Ser404)","tau; human tau T40 cotransfected with FG01 in N2aSwe cells, densitometry",~60%
same,increase of cAMP levels,cAMP levels,38%
same,interaction with adenylate cyclases,adenylate cyclases,interacts
same,GSK-3 activities (inactivated phospho-GSK-3β),"GSK-3α/β [1]; FG01 expression, human HEK293 cells, Western blot",decreases
same,phospho-GSK-3α (Ser21) and phospho-GSK-3β (Ser9) levels,"GSK-3α/β [1]; FG01 overexpression, human HeLaSwe and HEK293 cells",more highly phosphorylated
same,CDK5 in vitro activity,CDK5,Little change
same,CDK5 protein level,CDK5,Little change
same,phospho-GSK-3α (Ser21) and phospho-GSK-3β (Ser9) levels,GSK-3α/β [2],more highly phosphorylated
